Source: the supplement of paper PMC7125110
± gives the standard error. Variants at the floor of the assay were thinned out.

B1: glmS ribozyme (parent)
chain: AUAAAAGCGCCAGAACUACAGAAAUGUAGUUGACGAGGAGGAGGUUUAUCGAAUUUUCGGCGGAUGCCUCCAAA

Key:
Conditions in all cases: with glucosamine-6-phosphate
glucosamine-6-phosphate [1] = variants of: B1; test: self-cleavage kobs at 640 uM GlcN6P; higher = faster cleavage; RNA array
Outline: (§1)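 kcat and KM were obtained from weighted Michaelis–Menten fits across concentrations of kobs values. Those came from one- or two-exponential decay fits to per-tile medians normalised to baseline and to non-cleaving reference variants. The variants were barcoded ribozymes transcribed in situ by E. coli RNA polymerase on sequenced MiSeq chips and tracked through a hybridised Cy3 probe at 37 °C, with 40 μM to 10 mM glucosamine-6-phosphate in HEPES/KCl/Mg(OAc)2 buffer flowed in.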

glucosamine-6-phosphate [2] = variants of: B1; test: self-cleavage kobs at 2500 uM GlcN6P; higher = faster cleavage; RNA array
Outline: as §1

glucosamine-6-phosphate [3] = variants of: B1; test: self-cleavage kobs at 10000 uM GlcN6P; higher = faster cleavage; RNA array
Outline: as §1

## A6G G9A G41U A42U C70A
glucosamine-6-phosphate [1]
  self-cleavage kobs at 640 uM GlcN6P: < 1e-05 s⁻¹
glucosamine-6-phosphate [2]
  self-cleavage kobs at 2500 uM GlcN6P: < 1e-05 s⁻¹

## G9A A36G A39C C70G
glucosamine-6-phosphate [1]
  self-cleavage kobs at 640 uM GlcN6P: < 1e-05 s⁻¹
glucosamine-6-phosphate [2]
  self-cleavage kobs at 2500 uM GlcN6P: < 1e-05 s⁻¹

## A6G G37C G43A U46C
glucosamine-6-phosphate [1]
  self-cleavage kobs at 640 uM GlcN6P: < 1e-05 s⁻¹

## G9A A36U U56G
glucosamine-6-phosphate [1]
  self-cleavage kobs at 640 uM GlcN6P: < 1e-05 s⁻¹

## G7C G43U A64U
glucosamine-6-phosphate [1]
  self-cleavage kobs at 640 uM GlcN6P: < 1e-05 s⁻¹

## G9A U47A C70U
glucosamine-6-phosphate [1]
  self-cleavage kobs at 640 uM GlcN6P: < 1e-05 s⁻¹

## A6U G43U C61U C71U
glucosamine-6-phosphate [1]
  self-cleavage kobs at 640 uM GlcN6P: < 1e-05 s⁻¹
glucosamine-6-phosphate [2]
  self-cleavage kobs at 2500 uM GlcN6P: < 1e-05 s⁻¹

## C8A C16U C50U U56G
glucosamine-6-phosphate [1]
  self-cleavage kobs at 640 uM GlcN6P: < 1e-05 s⁻¹

## C8G A33C U45C U56C G59C
glucosamine-6-phosphate [1]
  self-cleavage kobs at 640 uM GlcN6P: < 1e-05 s⁻¹
glucosamine-6-phosphate [2]
  self-cleavage kobs at 2500 uM GlcN6P: < 1e-05 s⁻¹

## A6U C8A C11U C50G
glucosamine-6-phosphate [1]
  self-cleavage kobs at 640 uM GlcN6P: 0.000402 ± 0.00018 s⁻¹
glucosamine-6-phosphate [2]
  self-cleavage kobs at 2500 uM GlcN6P: 0.000125 ± 4.7e-05 s⁻¹

## G9U G44A A64C
glucosamine-6-phosphate [1]
  self-cleavage kobs at 640 uM GlcN6P: < 1e-05 s⁻¹

## A6G A36U A42G G44U G60C
glucosamine-6-phosphate [1]
  self-cleavage kobs at 640 uM GlcN6P: < 1e-05 s⁻¹

## C8U A14G G32U A33C
glucosamine-6-phosphate [1]
  self-cleavage kobs at 640 uM GlcN6P: < 1e-05 s⁻¹

## G7U C71A
glucosamine-6-phosphate [1]
  self-cleavage kobs at 640 uM GlcN6P: < 1e-05 s⁻¹
glucosamine-6-phosphate [3]
  self-cleavage kobs at 10000 uM GlcN6P: < 1e-05 s⁻¹

## G7A G13C G62U
glucosamine-6-phosphate [1]
  self-cleavage kobs at 640 uM GlcN6P: < 1e-05 s⁻¹

## G9C C50U C58U
glucosamine-6-phosphate [1]
  self-cleavage kobs at 640 uM GlcN6P: < 1e-05 s⁻¹
glucosamine-6-phosphate [2]
  self-cleavage kobs at 2500 uM GlcN6P: < 1e-05 s⁻¹

## C8A A15G A36C
glucosamine-6-phosphate [1]
  self-cleavage kobs at 640 uM GlcN6P: < 1e-05 s⁻¹

## G7A A48C U69G
glucosamine-6-phosphate [1]
  self-cleavage kobs at 640 uM GlcN6P: < 1e-05 s⁻¹
glucosamine-6-phosphate [2]
  self-cleavage kobs at 2500 uM GlcN6P: < 1e-05 s⁻¹

## G7U C34U A52U
glucosamine-6-phosphate [1]
  self-cleavage kobs at 640 uM GlcN6P: < 1e-05 s⁻¹
glucosamine-6-phosphate [2]
  self-cleavage kobs at 2500 uM GlcN6P: < 1e-05 s⁻¹

## G9A C61G C68A
glucosamine-6-phosphate [1]
  self-cleavage kobs at 640 uM GlcN6P: < 1e-05 s⁻¹
glucosamine-6-phosphate [2]
  self-cleavage kobs at 2500 uM GlcN6P: < 1e-05 s⁻¹

## A6U G38C C61U
glucosamine-6-phosphate [1]
  self-cleavage kobs at 640 uM GlcN6P: < 1e-05 s⁻¹

## C8G C11U A36U
glucosamine-6-phosphate [1]
  self-cleavage kobs at 640 uM GlcN6P: < 1e-05 s⁻¹
glucosamine-6-phosphate [2]
  self-cleavage kobs at 2500 uM GlcN6P: < 1e-05 s⁻¹

## G9U U47G C68A
glucosamine-6-phosphate [1]
  self-cleavage kobs at 640 uM GlcN6P: < 1e-05 s⁻¹

## G9A G29A A33C G66A
glucosamine-6-phosphate [1]
  self-cleavage kobs at 640 uM GlcN6P: < 1e-05 s⁻¹

## A6G A52G G60A
glucosamine-6-phosphate [1]
  self-cleavage kobs at 640 uM GlcN6P: < 1e-05 s⁻¹
glucosamine-6-phosphate [2]
  self-cleavage kobs at 2500 uM GlcN6P: < 1e-05 s⁻¹

## A6G C10U U54G
glucosamine-6-phosphate [1]
  self-cleavage kobs at 640 uM GlcN6P: < 1e-05 s⁻¹
glucosamine-6-phosphate [2]
  self-cleavage kobs at 2500 uM GlcN6P: < 1e-05 s⁻¹
glucosamine-6-phosphate [3]
  self-cleavage kobs at 10000 uM GlcN6P: < 1e-05 s⁻¹

## A6G A15U G32C U57G G59U
glucosamine-6-phosphate [1]
  self-cleavage kobs at 640 uM GlcN6P: < 1e-05 s⁻¹

## G9U A12C G51C C67U
glucosamine-6-phosphate [1]
  self-cleavage kobs at 640 uM GlcN6P: < 1e-05 s⁻¹
glucosamine-6-phosphate [2]
  self-cleavage kobs at 2500 uM GlcN6P: < 1e-05 s⁻¹

## G9U G13U G29U G37C
glucosamine-6-phosphate [1]
  self-cleavage kobs at 640 uM GlcN6P: < 1e-05 s⁻¹
glucosamine-6-phosphate [2]
  self-cleavage kobs at 2500 uM GlcN6P: < 1e-05 s⁻¹

## G7U C10U C16A U30G A48C
glucosamine-6-phosphate [1]
  self-cleavage kobs at 640 uM GlcN6P: < 1e-05 s⁻¹

## C8U C70G
glucosamine-6-phosphate [1]
  self-cleavage kobs at 640 uM GlcN6P: 0.0011 ± 0.00055 s⁻¹

## A6U C16U C61U C71U
glucosamine-6-phosphate [1]
  self-cleavage kobs at 640 uM GlcN6P: < 1e-05 s⁻¹
glucosamine-6-phosphate [2]
  self-cleavage kobs at 2500 uM GlcN6P: < 1e-05 s⁻¹

## A6C G43C C71U
glucosamine-6-phosphate [1]
  self-cleavage kobs at 640 uM GlcN6P: < 1e-05 s⁻¹

## A6U G35A C70U
glucosamine-6-phosphate [1]
  self-cleavage kobs at 640 uM GlcN6P: < 1e-05 s⁻¹

## C8A G13U C58A U65G C67G
glucosamine-6-phosphate [1]
  self-cleavage kobs at 640 uM GlcN6P: < 1e-05 s⁻¹

## G9A C11U U54A G59A A64G
glucosamine-6-phosphate [1]
  self-cleavage kobs at 640 uM GlcN6P: < 1e-05 s⁻¹
glucosamine-6-phosphate [2]
  self-cleavage kobs at 2500 uM GlcN6P: < 1e-05 s⁻¹

## C8A G40A C68U
glucosamine-6-phosphate [1]
  self-cleavage kobs at 640 uM GlcN6P: < 1e-05 s⁻¹
glucosamine-6-phosphate [3]
  self-cleavage kobs at 10000 uM GlcN6P: < 1e-05 s⁻¹

## G9U G63A
glucosamine-6-phosphate [1]
  self-cleavage kobs at 640 uM GlcN6P: < 1e-05 s⁻¹
glucosamine-6-phosphate [2]
  self-cleavage kobs at 2500 uM GlcN6P: < 1e-05 s⁻¹
glucosamine-6-phosphate [3]
  self-cleavage kobs at 10000 uM GlcN6P: < 1e-05 s⁻¹

## A6U U55G G59C U69C
glucosamine-6-phosphate [1]
  self-cleavage kobs at 640 uM GlcN6P: 0.000135 ± 5.3e-05 s⁻¹
glucosamine-6-phosphate [2]
  self-cleavage kobs at 2500 uM GlcN6P: 5.57e-05 ± 2.7e-05 s⁻¹

## A6G C8U G37C U54C U69C
glucosamine-6-phosphate [1]
  self-cleavage kobs at 640 uM GlcN6P: < 1e-05 s⁻¹
glucosamine-6-phosphate [2]
  self-cleavage kobs at 2500 uM GlcN6P: < 1e-05 s⁻¹

## A6U A12G A39G G63C
glucosamine-6-phosphate [1]
  self-cleavage kobs at 640 uM GlcN6P: < 1e-05 s⁻¹
glucosamine-6-phosphate [2]
  self-cleavage kobs at 2500 uM GlcN6P: < 1e-05 s⁻¹

## G9U U65C
glucosamine-6-phosphate [1]
  self-cleavage kobs at 640 uM GlcN6P: < 1e-05 s⁻¹
glucosamine-6-phosphate [3]
  self-cleavage kobs at 10000 uM GlcN6P: < 1e-05 s⁻¹

## G9A C10U C58U
glucosamine-6-phosphate [1]
  self-cleavage kobs at 640 uM GlcN6P: < 1e-05 s⁻¹

## G7A C34U G35U G37A G40A
glucosamine-6-phosphate [1]
  self-cleavage kobs at 640 uM GlcN6P: < 1e-05 s⁻¹
glucosamine-6-phosphate [2]
  self-cleavage kobs at 2500 uM GlcN6P: < 1e-05 s⁻¹

## G7C G9U G62C
glucosamine-6-phosphate [1]
  self-cleavage kobs at 640 uM GlcN6P: < 1e-05 s⁻¹

## A6G A12C U55G
glucosamine-6-phosphate [1]
  self-cleavage kobs at 640 uM GlcN6P: 7.46e-05 ± 1.3e-05 s⁻¹
glucosamine-6-phosphate [2]
  self-cleavage kobs at 2500 uM GlcN6P: 0.000177 ± 3.7e-05 s⁻¹

## G7U G38C U45C C70G
glucosamine-6-phosphate [1]
  self-cleavage kobs at 640 uM GlcN6P: < 1e-05 s⁻¹

## A6U G29A G44U
glucosamine-6-phosphate [1]
  self-cleavage kobs at 640 uM GlcN6P: < 1e-05 s⁻¹

## G7C G9U A39G U45A G59A G60A C67U C68U
glucosamine-6-phosphate [1]
  self-cleavage kobs at 640 uM GlcN6P: < 1e-05 s⁻¹

## G7A C8G A14U U65G
glucosamine-6-phosphate [1]
  self-cleavage kobs at 640 uM GlcN6P: < 1e-05 s⁻¹
glucosamine-6-phosphate [2]
  self-cleavage kobs at 2500 uM GlcN6P: < 1e-05 s⁻¹
glucosamine-6-phosphate [3]
  self-cleavage kobs at 10000 uM GlcN6P: < 1e-05 s⁻¹

## G9U U54C C68U
glucosamine-6-phosphate [1]
  self-cleavage kobs at 640 uM GlcN6P: < 1e-05 s⁻¹

## A6G U56C C61G
glucosamine-6-phosphate [1]
  self-cleavage kobs at 640 uM GlcN6P: < 1e-05 s⁻¹
glucosamine-6-phosphate [2]
  self-cleavage kobs at 2500 uM GlcN6P: < 1e-05 s⁻¹

## G7A A33G C68G
glucosamine-6-phosphate [1]
  self-cleavage kobs at 640 uM GlcN6P: 0.00031 ± 0.00013 s⁻¹
glucosamine-6-phosphate [2]
  self-cleavage kobs at 2500 uM GlcN6P: 6.13e-05 ± 2.5e-05 s⁻¹

## A6G U54A U57G
glucosamine-6-phosphate [1]
  self-cleavage kobs at 640 uM GlcN6P: < 1e-05 s⁻¹

## G7U A12G C16U
glucosamine-6-phosphate [1]
  self-cleavage kobs at 640 uM GlcN6P: < 1e-05 s⁻¹
glucosamine-6-phosphate [2]
  self-cleavage kobs at 2500 uM GlcN6P: < 1e-05 s⁻¹

## A6C G38A A52U C70U
glucosamine-6-phosphate [1]
  self-cleavage kobs at 640 uM GlcN6P: < 1e-05 s⁻¹

## C8U G60A U65C
glucosamine-6-phosphate [1]
  self-cleavage kobs at 640 uM GlcN6P: < 1e-05 s⁻¹

## C8G G32A A53G
glucosamine-6-phosphate [1]
  self-cleavage kobs at 640 uM GlcN6P: < 1e-05 s⁻¹

## A6U C34A G44U C67U
glucosamine-6-phosphate [1]
  self-cleavage kobs at 640 uM GlcN6P: < 1e-05 s⁻¹
glucosamine-6-phosphate [2]
  self-cleavage kobs at 2500 uM GlcN6P: < 1e-05 s⁻¹

## G9U A36U G40U G60A
glucosamine-6-phosphate [1]
  self-cleavage kobs at 640 uM GlcN6P: < 1e-05 s⁻¹

## C8A A12U A15U C70A
glucosamine-6-phosphate [1]
  self-cleavage kobs at 640 uM GlcN6P: < 1e-05 s⁻¹

## A6G G9A G29A G32U G40U
glucosamine-6-phosphate [1]
  self-cleavage kobs at 640 uM GlcN6P: < 1e-05 s⁻¹

## A6G C16G U57C
glucosamine-6-phosphate [1]
  self-cleavage kobs at 640 uM GlcN6P: < 1e-05 s⁻¹

## C8G A64C C68G
glucosamine-6-phosphate [1]
  self-cleavage kobs at 640 uM GlcN6P: < 1e-05 s⁻¹
glucosamine-6-phosphate [2]
  self-cleavage kobs at 2500 uM GlcN6P: < 1e-05 s⁻¹

## C8A A53U G60U
glucosamine-6-phosphate [1]
  self-cleavage kobs at 640 uM GlcN6P: < 1e-05 s⁻¹
glucosamine-6-phosphate [2]
  self-cleavage kobs at 2500 uM GlcN6P: < 1e-05 s⁻¹

## G9A G29U G41A U45A U47G C50U C70U
glucosamine-6-phosphate [1]
  self-cleavage kobs at 640 uM GlcN6P: < 1e-05 s⁻¹

## G9C A53G U65C
glucosamine-6-phosphate [1]
  self-cleavage kobs at 640 uM GlcN6P: < 1e-05 s⁻¹
glucosamine-6-phosphate [2]
  self-cleavage kobs at 2500 uM GlcN6P: < 1e-05 s⁻¹

## A6C G59C G60U
glucosamine-6-phosphate [1]
  self-cleavage kobs at 640 uM GlcN6P: < 1e-05 s⁻¹
glucosamine-6-phosphate [2]
  self-cleavage kobs at 2500 uM GlcN6P: < 1e-05 s⁻¹
